Holding throughout (assay): cryo-EM structure
Data set [1] has as its target T1, Plasmodium falciparum myosin A (P. falciparum, UniProt Q8IDR3 1-818).
T1 construct: also called PfMyoA; MyoA
T1 sequence: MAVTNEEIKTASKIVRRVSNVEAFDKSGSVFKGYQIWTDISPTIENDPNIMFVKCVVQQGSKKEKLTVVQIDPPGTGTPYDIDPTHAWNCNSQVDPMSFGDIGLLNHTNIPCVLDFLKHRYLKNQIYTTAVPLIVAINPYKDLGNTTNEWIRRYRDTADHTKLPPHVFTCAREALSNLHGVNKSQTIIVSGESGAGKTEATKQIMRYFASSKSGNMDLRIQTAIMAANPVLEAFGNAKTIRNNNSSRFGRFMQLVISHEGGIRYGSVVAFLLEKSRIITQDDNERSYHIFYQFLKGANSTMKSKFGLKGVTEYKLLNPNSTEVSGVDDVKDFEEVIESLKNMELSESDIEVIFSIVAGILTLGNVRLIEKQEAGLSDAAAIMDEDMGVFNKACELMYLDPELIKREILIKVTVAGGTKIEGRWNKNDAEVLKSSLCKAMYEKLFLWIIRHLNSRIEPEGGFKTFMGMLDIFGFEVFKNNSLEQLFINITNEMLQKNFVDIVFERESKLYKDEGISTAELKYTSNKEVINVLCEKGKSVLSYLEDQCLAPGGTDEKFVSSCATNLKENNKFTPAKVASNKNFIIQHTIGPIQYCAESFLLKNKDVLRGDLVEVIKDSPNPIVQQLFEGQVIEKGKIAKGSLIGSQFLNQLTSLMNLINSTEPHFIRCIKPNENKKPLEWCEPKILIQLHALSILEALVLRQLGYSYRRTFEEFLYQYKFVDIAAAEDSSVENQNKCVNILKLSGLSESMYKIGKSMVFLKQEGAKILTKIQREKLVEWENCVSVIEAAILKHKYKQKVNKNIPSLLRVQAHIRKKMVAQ
As to conditions: both partners purified.

In data set [2] the target is T2, MyoA:ELC:MTIP complex (P. falciparum, UniProt Q8IDR3;Q8IJM4;Q8I4W8).
T2 construct: also called PfMyoA with its two light chains; MyoA:MTIP:ELC complex; copies: + +
T2 sequence 1: T1 sequence
T2 sequence 2: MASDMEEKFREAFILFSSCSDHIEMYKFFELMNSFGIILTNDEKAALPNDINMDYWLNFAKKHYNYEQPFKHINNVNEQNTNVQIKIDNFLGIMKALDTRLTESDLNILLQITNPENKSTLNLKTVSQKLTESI
T2 sequence 3: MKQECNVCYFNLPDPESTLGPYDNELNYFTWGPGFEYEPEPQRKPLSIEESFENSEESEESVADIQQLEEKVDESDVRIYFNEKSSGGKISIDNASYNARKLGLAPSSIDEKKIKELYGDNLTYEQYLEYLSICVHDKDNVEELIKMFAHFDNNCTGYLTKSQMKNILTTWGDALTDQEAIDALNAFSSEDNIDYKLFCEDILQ
The settings on record: both partners purified.

Data set [3] concerns the molecule itself.

B1: Plasmodium falciparum essential light chain (natural protein)
chain: T2 sequence 2
notes: also called PfELC; ELC
B1: in data set [1], the binding result is “binds”.

B2: Plasmodium falciparum actin 1 filament (natural protein)
chain: not shown
notes: source: polymerised with jasplakinolide
In the case of B2, the binding result in data set [1], in data set [2] and in data set [3] was “binds” each time.

For the origin of these results see publication PMC9037914 (PLoS Pathogens, 2022).
